Where “and” joins values, the source holds several entries; their conditions need not be identical. Identical values can stand only once. Values belong to the binder of their own block, whether it stands above or below them. Ends that are not written are not given here. * marks the point of attachment. Biotin = O=C1N[C@H]2[C@H](CS[C@H]2CCCCC(=O)*)N1
How the values were obtained:
[1] = target: the molecule itself; assay: crystal structure; BiP^T229A-V461F (28-549) at 150 µM with equimolar FICD^L258D-H363A and 175 µM ATP (FICD excluded from the crystals); apo: 20% PEG3350, 0.1 M Bis-Tris Propane pH 7.5, 0.2 M Na3Citrate; ADP-bound: 20% PEG3350, 0.2 M K3Citrate
[2] = target: T1, BiP (Chinese hamster, wild type, UK173) (Chinese hamster, UniProt G3I8R9 19-654); assay: BLI; as a1, association with Mg + ATP; dissociation (step 1) with Ca + ADP; details: both partners purified
T1 construct: BiP (Grp78), the ER Hsp70 chaperone, Chinese hamster (Cricetulus griseus), wild type; called full-length BiP in the results; also called Grp78; mammalian BiP; source: E. coli M15, purified (Ni-NTA)

[3] = target: T1, BiP (Chinese hamster, wild type, UK173); assay: BLI; as a7, but dissociation with Mg + Ca + ATP + ADP ([MgCl2]/[CaCl2]=3; [ATP]/[ADP]=2); details: both partners purified
[4] = target: T1, BiP (Chinese hamster, wild type, UK173); assay: BLI; as a8, dissociation with Mg + Ca + ATP + ADP and Grp170 present in the dissociation step; details: both partners purified
[5] = target: T2, human Hsc70 (HSPA8; UK2511) (human, UniProt P11142 1-646); assay: BLI; streptavidin sensor with biotinylated ERdj6 J-domain (J) and biotinylated P15 co-immobilised; association: 5 µM Hsp70, 3 mM MgCl2, 1.5 mM ATP; dissociation in protein-free solution with Mg + ATP + ADP ([ATP]/[ADP]=2); 28°C; 50 mM HEPES-KOH pH 7.4, 100 mM KCl, 0.2 mM TCEP, 0.05% Triton X-100; one-phase decay fit; details: both partners purified
T2 construct: human cytosolic Hsc70 (HSPA8); source: E. coli BL21 T7 Express lysY/Iq, purified (Ni-NTA, Ulp1 cleavage, anion exchange); not shown: His6-Smt3, N-terminal, cleaved

[6] = target: T3, human cytosolic Hsp70 (HSPA1A; UK2510; natural variant E110D) (human, UniProt P0DMV8 1-641, E110D); assay: as above; details: both partners purified
T3 construct: human cytosolic Hsp70 (HSPA1A), natural variant E110D; source: E. coli BL21 T7 Express lysY/Iq, purified (Ni-NTA, Ulp1 cleavage, anion exchange); not shown: His6-Smt3, N-terminal, cleaved

[7] = target: T1, BiP (Chinese hamster, wild type, UK173); assay: as above; details: both partners purified
[8] = target: T4, BiP from Drosophila melanogaster (UK2354) (Drosophila melanogaster, UniProt P29844 19-656); assay: as above; details: both partners purified
T4 construct: BiP homologue of Drosophila melanogaster; the ER signal peptide is probably absent from the bacterial construct; also called dBiP; Drosophila BiP; source: E. coli BL21 T7 Express lysY/Iq, purified (Ni-NTA, Ulp1 cleavage, anion exchange); not shown: His6-Smt3, N-terminal, cleaved

[9] = target: T1, BiP (Chinese hamster, wild type, UK173); assay: BLI; streptavidin sensor with biotinylated ERdj6 J-domain (J) and biotinylated P15 co-immobilised; association: 5 µM BiP, MgCl2 + ATP; dissociation in protein-free solution with Mg + ATP; 28°C; 50 mM HEPES-KOH pH 7.4, 100 mM KCl, 0.2 mM TCEP, 0.05% Triton X-100; one-phase decay fit; details: both partners purified
[10] = target: T1, BiP (Chinese hamster, wild type, UK173); assay: BLI; as a1, but association with Mg + Ca + ATP ([MgCl2]/[CaCl2]=3); dissociation with Mg + ATP; details: both partners purified
[11] = target: T5, DnaK from Escherichia coli (UK2243) (Escherichia coli, UniProt P0A6Y8 1-638); assay: BLI; as a14, but dissociation with Mg + Ca + ATP + ADP; details: both partners purified
T5 construct: DnaK, the Hsp70 of Escherichia coli; also called bacterial DnaK; source: E. coli BL21 T7 Express lysY/Iq, purified (Ni-NTA, Ulp1 cleavage, anion exchange, second Ni-NTA); not shown: His6-Smt3, N-terminal, cleaved

[12] = target: T1, BiP (Chinese hamster, wild type, UK173); assay: BLI; as a1, association with Mg + ATP; dissociation with Ca + ATP (Ca2+ the only divalent cation); details: both partners purified
[13] = target: T1, BiP (Chinese hamster, wild type, UK173); assay: BLI; as a1, but the non-functional H422Q J-domain (J^QPD) co-immobilised with P15; association with Mg + ATP; dissociation with Mg + ATP; details: both partners purified
[14] = target: T5, DnaK from Escherichia coli (UK2243); assay: BLI; streptavidin sensor with biotinylated J-domain of E. coli DnaJ (residues 1-72) and biotinylated P15 co-immobilised; association: 5 µM DnaK, 3 mM MgCl2, 1.5 mM ATP; dissociation in protein-free solution with Mg + ATP + ADP ([ATP]/[ADP]=2); 28°C; 50 mM HEPES-KOH pH 7.4, 100 mM KCl, 0.2 mM TCEP, 0.05% Triton X-100; one-phase decay fit; details: both partners purified
[15] = target: T1, BiP (Chinese hamster, wild type, UK173); assay: BLI; as a7, but dissociation with Mg + Ca + ATP + ADP ([MgCl2]/[CaCl2]=3; [ATP]/[ADP]=2); details: both partners purified; remark: listed apart in the source
[16] = target: T2, human Hsc70 (HSPA8; UK2511); assay: as above; details: both partners purified
[17] = target: T3, human cytosolic Hsp70 (HSPA1A; UK2510; …); assay: as above; details: both partners purified
[18] = target: T1, BiP (Chinese hamster, wild type, UK173); assay: as above; details: both partners purified; remark: listed apart in the source
[19] = target: T4, BiP from Drosophila melanogaster …; assay: as above; details: both partners purified
[20] = target: T1, BiP (Chinese hamster, wild type, UK173); assay: BLI; as a7, dissociation with Mg + ATP + ADP and Grp170 present in the dissociation step; details: both partners purified
[21] = target: T1, BiP (Chinese hamster, wild type, UK173); assay: BLI; as a1, association with Mg + ATP; dissociation with Mg + Ca + ATP ([MgCl2]/[CaCl2]=3); details: both partners purified
[22] = target: T1, BiP (Chinese hamster, wild type, UK173); assay: BLI; as a1, association with Mg + ATP; first dissociation step with Ca + ADP, then second dissociation step (the one fitted) with Mg + ATP; details: both partners purified
[23] = target: T1, BiP (Chinese hamster, wild type, UK173); assay: BLI; streptavidin sensor with biotinylated ERdj6 J-domain (J) and biotinylated P15 co-immobilised; association: 5 µM Hsp70, 3 mM MgCl2, 1.5 mM ATP; dissociation in protein-free solution with Mg + ATP + ADP ([ATP]/[ADP]=2); 28°C; 50 mM HEPES-KOH pH 7.4, 100 mM KCl, 0.2 mM TCEP, 0.05% Triton X-100; one-phase decay fit; details: both partners purified; remark: listed apart in the source
[24] = target: T1, BiP (Chinese hamster, wild type, UK173); assay: BLI; as a1, association with Mg + ATP; dissociation with Mg + ADP; details: both partners purified
[25] = target: T1, BiP (Chinese hamster, wild type, UK173); assay: BLI; streptavidin sensor with biotinylated ERdj6 J-domain (J) and biotinylated P15 co-immobilised; association: 5 µM Hsp70, 3 mM MgCl2, 1.5 mM ATP; dissociation in protein-free solution with Mg + ATP + ADP ([ATP]/[ADP]=2); 28°C; 50 mM HEPES-KOH pH 7.4, 100 mM KCl, 0.2 mM TCEP, 0.05% Triton X-100; one-phase decay fit; details: both partners purified; remark: listed apart in the source
[26] = target: T1, BiP (Chinese hamster, wild type, UK173); assay: BLI; as a1, but the non-functional H422Q J-domain (J^QPD) co-immobilised with P15; association with Mg + ATP; dissociation with Mg + ATP; details: both partners purified; remark: listed apart in the source
[27] = target: T1, BiP (Chinese hamster, wild type, UK173); assay: BLI; as a1, association with Mg + ATP; first dissociation step with Mg + ADP, then second dissociation step (the one fitted) with Mg + ATP; details: both partners purified

T2 sequence (P11142 whole entry): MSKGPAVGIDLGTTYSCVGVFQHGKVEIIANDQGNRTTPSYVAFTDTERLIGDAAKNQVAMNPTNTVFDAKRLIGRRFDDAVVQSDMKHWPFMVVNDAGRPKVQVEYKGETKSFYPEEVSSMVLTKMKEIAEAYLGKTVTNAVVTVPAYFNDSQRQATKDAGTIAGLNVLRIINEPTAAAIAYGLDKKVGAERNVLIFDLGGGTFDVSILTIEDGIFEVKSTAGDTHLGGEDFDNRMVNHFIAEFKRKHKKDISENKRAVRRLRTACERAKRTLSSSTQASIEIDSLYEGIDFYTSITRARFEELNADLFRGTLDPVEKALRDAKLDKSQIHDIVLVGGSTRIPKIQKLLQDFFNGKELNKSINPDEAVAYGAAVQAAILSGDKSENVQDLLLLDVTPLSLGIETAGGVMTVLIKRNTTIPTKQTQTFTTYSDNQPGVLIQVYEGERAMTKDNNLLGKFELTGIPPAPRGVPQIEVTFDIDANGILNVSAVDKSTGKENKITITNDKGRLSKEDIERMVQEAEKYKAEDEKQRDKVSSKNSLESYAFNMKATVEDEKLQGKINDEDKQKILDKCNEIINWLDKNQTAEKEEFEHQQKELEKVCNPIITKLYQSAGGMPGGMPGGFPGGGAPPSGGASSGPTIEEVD
T3 sequence (P0DMV8 whole entry E110D): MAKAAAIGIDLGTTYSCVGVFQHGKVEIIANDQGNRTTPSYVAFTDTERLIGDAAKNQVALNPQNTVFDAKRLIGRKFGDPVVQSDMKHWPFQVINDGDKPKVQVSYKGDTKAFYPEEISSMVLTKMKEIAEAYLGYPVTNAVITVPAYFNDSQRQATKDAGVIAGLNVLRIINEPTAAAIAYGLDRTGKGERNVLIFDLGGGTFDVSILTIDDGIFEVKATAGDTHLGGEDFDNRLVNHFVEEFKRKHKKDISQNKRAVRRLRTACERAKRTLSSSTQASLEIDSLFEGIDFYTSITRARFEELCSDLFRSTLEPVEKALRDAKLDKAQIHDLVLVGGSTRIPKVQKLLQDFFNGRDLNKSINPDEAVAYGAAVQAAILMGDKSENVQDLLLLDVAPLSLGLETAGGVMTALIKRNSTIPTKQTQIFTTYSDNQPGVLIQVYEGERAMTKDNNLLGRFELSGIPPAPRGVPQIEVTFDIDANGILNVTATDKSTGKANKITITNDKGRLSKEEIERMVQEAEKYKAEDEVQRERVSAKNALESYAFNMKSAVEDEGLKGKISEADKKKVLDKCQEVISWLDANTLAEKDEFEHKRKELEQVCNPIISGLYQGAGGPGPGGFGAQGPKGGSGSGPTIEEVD
T1 sequence (G3I8R9 19-654): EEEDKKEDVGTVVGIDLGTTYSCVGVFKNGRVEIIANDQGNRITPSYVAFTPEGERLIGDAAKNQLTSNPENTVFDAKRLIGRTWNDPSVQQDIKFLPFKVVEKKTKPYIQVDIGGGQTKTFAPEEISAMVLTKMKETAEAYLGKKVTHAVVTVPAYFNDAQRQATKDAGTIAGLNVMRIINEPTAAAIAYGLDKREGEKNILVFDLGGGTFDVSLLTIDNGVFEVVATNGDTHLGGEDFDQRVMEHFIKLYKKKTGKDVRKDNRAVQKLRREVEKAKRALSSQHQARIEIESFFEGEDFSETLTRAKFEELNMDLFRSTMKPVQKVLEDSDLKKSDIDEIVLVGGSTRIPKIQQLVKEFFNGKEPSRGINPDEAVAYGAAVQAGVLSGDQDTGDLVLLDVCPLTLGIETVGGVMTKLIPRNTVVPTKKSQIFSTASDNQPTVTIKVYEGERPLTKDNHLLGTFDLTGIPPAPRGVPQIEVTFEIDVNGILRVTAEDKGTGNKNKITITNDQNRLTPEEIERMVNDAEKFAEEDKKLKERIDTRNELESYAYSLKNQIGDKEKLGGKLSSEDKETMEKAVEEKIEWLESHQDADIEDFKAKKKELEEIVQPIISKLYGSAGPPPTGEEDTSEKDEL
T4 sequence (P29844 19-656): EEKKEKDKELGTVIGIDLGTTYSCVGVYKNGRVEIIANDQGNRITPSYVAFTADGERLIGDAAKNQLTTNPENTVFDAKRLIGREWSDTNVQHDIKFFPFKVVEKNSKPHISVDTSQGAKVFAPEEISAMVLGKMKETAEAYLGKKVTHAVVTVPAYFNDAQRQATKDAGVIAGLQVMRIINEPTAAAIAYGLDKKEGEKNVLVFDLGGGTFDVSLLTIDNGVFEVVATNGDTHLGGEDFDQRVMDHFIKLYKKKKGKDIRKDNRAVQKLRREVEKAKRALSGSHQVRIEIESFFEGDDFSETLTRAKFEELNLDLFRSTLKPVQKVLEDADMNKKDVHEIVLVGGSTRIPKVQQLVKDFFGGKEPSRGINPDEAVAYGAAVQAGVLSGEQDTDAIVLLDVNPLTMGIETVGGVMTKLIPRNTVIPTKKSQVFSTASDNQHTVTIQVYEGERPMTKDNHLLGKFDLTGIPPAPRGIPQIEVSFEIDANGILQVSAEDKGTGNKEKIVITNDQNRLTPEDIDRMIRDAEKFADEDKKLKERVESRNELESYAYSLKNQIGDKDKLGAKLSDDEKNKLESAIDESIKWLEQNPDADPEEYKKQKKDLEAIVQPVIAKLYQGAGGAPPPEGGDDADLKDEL
T5 sequence (P0A6Y8 whole entry): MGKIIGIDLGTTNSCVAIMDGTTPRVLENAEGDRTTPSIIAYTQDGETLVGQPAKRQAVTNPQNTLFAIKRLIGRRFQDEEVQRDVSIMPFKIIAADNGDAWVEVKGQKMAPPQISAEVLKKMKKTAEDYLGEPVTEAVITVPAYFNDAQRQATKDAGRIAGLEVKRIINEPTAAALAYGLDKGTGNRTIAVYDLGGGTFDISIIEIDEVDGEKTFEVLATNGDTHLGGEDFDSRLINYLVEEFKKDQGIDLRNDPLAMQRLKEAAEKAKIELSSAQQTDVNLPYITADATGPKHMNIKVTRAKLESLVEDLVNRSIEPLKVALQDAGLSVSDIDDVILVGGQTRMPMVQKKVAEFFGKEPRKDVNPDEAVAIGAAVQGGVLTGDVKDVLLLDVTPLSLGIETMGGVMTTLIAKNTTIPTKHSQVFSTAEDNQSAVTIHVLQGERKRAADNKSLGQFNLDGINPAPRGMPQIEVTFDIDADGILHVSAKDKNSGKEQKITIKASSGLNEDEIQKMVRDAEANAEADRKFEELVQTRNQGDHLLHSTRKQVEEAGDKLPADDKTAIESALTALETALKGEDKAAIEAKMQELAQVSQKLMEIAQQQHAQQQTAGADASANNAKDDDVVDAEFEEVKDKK

B1: Chinese hamster BiP^T229A-V461F (residues 28–549), lid-truncated (domain or fragment)
chain: not shown
notes: also called apo BiP oligomer; ADP BiP oligomer; source: E. coli M15, purified (as in Perera et al., 2019; anion exchange, gel filtration)
binding result [1]: binds

koff [2]: 0.00121 s⁻¹ and 0.0012 s⁻¹ and 0.00122 s⁻¹
koff ([2]; mean): 0.00121 s⁻¹
koff [3]: 0.0025 s⁻¹ and 0.0024 s⁻¹ and 0.00243 s⁻¹
koff ([3]; mean): 0.00244 s⁻¹
koff [4]: 0.00682 s⁻¹ and 0.00595 s⁻¹ and 0.00602 s⁻¹
koff ([4]; mean): 0.00626 s⁻¹
koff [5]: 0.00395 s⁻¹ and 0.00411 s⁻¹ and 0.00394 s⁻¹ and 0.0038 s⁻¹
koff [6]: 0.00203 s⁻¹ and 0.00225 s⁻¹ and 0.00198 s⁻¹ and 0.00185 s⁻¹
koff [7]: 0.00441 s⁻¹ and 0.00438 s⁻¹ and 0.00434 s⁻¹ and 0.00453 s⁻¹
koff [8]: 0.00811 s⁻¹ and 0.00832 s⁻¹ and 0.00795 s⁻¹ and 0.00806 s⁻¹
koff [9]: 0.00583 s⁻¹ and 0.00632 s⁻¹ and 0.00607 s⁻¹
koff ([9]; mean): 0.00607 s⁻¹
koff [10]: 0.00546 s⁻¹ and 0.00506 s⁻¹ and 0.00591 s⁻¹
koff ([10]; mean): 0.00547 s⁻¹
koff [11]: 0.00636 s⁻¹ and 0.00686 s⁻¹ and 0.00525 s⁻¹ and 0.00615 s⁻¹
koff [12]: 0.0074 s⁻¹ and 0.00639 s⁻¹ and 0.00848 s⁻¹
koff ([12]; mean): 0.00742 s⁻¹
koff [13]: 0.00101 s⁻¹ and 0.000958 s⁻¹ and 0.00117 s⁻¹
koff ([13]; mean): 0.00105 s⁻¹
koff [14]: 0.00693 s⁻¹ and 0.00776 s⁻¹ and 0.00549 s⁻¹ and 0.00673 s⁻¹
koff [15]: 0.00239 s⁻¹ and 0.00247 s⁻¹ and 0.00254 s⁻¹
koff ([15]; mean): 0.00247 s⁻¹
koff [16]: 0.00336 s⁻¹ and 0.00333 s⁻¹ and 0.00344 s⁻¹ and 0.00318 s⁻¹
koff [17]: 0.00171 s⁻¹ and 0.00178 s⁻¹ and 0.00164 s⁻¹
koff [18]: 0.0025 s⁻¹ and 0.00254 s⁻¹ and 0.00241 s⁻¹ and 0.00255 s⁻¹
koff [19]: 0.00384 s⁻¹ and 0.00414 s⁻¹ and 0.00359 s⁻¹ and 0.0038 s⁻¹
koff [20]: 0.0103 s⁻¹ and 0.00955 s⁻¹ and 0.00937 s⁻¹
koff ([20]; mean): 0.00974 s⁻¹
koff [21]: 0.00575 s⁻¹ and 0.00678 s⁻¹ and 0.00573 s⁻¹
koff ([21]; mean): 0.00609 s⁻¹
koff [22]: 0.00294 s⁻¹ and 0.00337 s⁻¹ and 0.00333 s⁻¹
koff ([22]; mean): 0.00321 s⁻¹
koff [23]: 0.00421 s⁻¹ and 0.00438 s⁻¹ and 0.00441 s⁻¹
koff ([23]; mean): 0.00433 s⁻¹
koff [24]: 0.00145 s⁻¹ (2×) and 0.00148 s⁻¹
koff ([24]; mean): 0.00146 s⁻¹
koff [25]: 0.00434 s⁻¹ (2×) and 0.00424 s⁻¹
koff ([25]; mean): 0.00431 s⁻¹
koff [26]: 0.00203 s⁻¹ and 0.000861 s⁻¹ and 0.000902 s⁻¹
koff ([26]; mean): 0.00127 s⁻¹
koff [27]: 0.00684 s⁻¹ and 0.00682 s⁻¹ and 0.00672 s⁻¹
koff ([27]; mean): 0.00679 s⁻¹
B2: P15 BiP substrate peptide (peptide)
peptide: ALLLSAPRRGAGKK(Biotin)
notes: substrate peptide P15 (Misselwitz et al., 1998); Held on streptavidin BLI sensors together with a biotinylated J-domain (ERdj6 residues 390-455, wild type or H422Q; for DnaK the J-domain of DnaJ, residues 1-72); source: synthetic peptide (custom synthesis, GenScript)

Source: paper PMC7758071, “Calcium depletion challenges endoplasmic reticulum proteostasis by destabilising BiP-substrate complexes” (eLife, 2020)
